Laboratory results published in the supplement of paper PMC9112550, “Optimization of the antimicrobial peptide Bac7 by deep mutational scanning” (BMC Biology, 2022).

Test system: Escherichia coli TOP10
Assay: shrunken log2 fold change of peptide-encoding DNA abundance (4.5 h post-induction vs induction); higher = less antimicrobial activity (less host growth inhibition)
Details: time post-induction: 4.5 h; library: site-saturation at positions 5, 18, 19, 20
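Note: peptides expressed intracellularly from a pBAD plasmid library in pooled LB shake-flask culture, induced with 0.3% L-arabinose, DNA abundance read by NGS, three biological replicates, DESeq2 with apeglm shrinkage.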

RRIRMRPPRLPRPRPRPLRKPRP
shrunken log2 fold change: 1.54

RRIRMRPPRLPRPRPRPVDVPRP
shrunken log2 fold change: -0.163

RRIRQRPPRLPRPRPRPHLEPRP
shrunken log2 fold change: -0.15

RRIRIRPPRLPRPRPRPQQSPRP
shrunken log2 fold change: -0.113

RRIRVRPPRLPRPRPRPYMLPRP
shrunken log2 fold change: -0.71

RRIRKRPPRLPRPRPRPPATPRP
shrunken log2 fold change: 0.773

RRIRARPPRLPRPRPRPIETPRP
shrunken log2 fold change: -0.18

RRIRMRPPRLPRPRPRPVYSPRP
shrunken log2 fold change: -0.248

RRIRCRPPRLPRPRPRPTITPRP
shrunken log2 fold change: -0.44

RRIRPRPPRLPRPRPRPLCWPRP
shrunken log2 fold change: 0.266

RRIRYRPPRLPRPRPRPSHVPRP
shrunken log2 fold change: -1.58

RRIRWRPPRLPRPRPRPSPGPRP
shrunken log2 fold change: -0.0366

RRIRTRPPRLPRPRPRPEPQPRP
shrunken log2 fold change: 0.927

RRIRLRPPRLPRPRPRPRFLPRP
shrunken log2 fold change: -0.144

RRIRARPPRLPRPRPRPHGIPRP
shrunken log2 fold change: 0.0225

RRIRNRPPRLPRPRPRPKSAPRP
shrunken log2 fold change: 0.265

RRIRTRPPRLPRPRPRPICWPRP
shrunken log2 fold change: -0.13

RRIRLRPPRLPRPRPRPDRVPRP
shrunken log2 fold change: -0.0538

RRIRTRPPRLPRPRPRPCLDPRP
shrunken log2 fold change: -0.405

RRIRDRPPRLPRPRPRPNMKPRP
shrunken log2 fold change: 0.818

RRIRERPPRLPRPRPRPGSQPRP
shrunken log2 fold change: -0.196

RRIRQRPPRLPRPRPRPGAFPRP
shrunken log2 fold change: -0.158

RRIRTRPPRLPRPRPRPDGHPRP
shrunken log2 fold change: -0.102

RRIRKRPPRLPRPRPRPHHDPRP
shrunken log2 fold change: -0.121

RRIRPRPPRLPRPRPRPASEPRP
shrunken log2 fold change: 0.0613

RRIRTRPPRLPRPRPRPTPFPRP
shrunken log2 fold change: 0.356

RRIRDRPPRLPRPRPRPWDRPRP
shrunken log2 fold change: -0.193

RRIRHRPPRLPRPRPRPVLPPRP
shrunken log2 fold change: -0.0347

RRIRRRPPRLPRPRPRPREAPRP
shrunken log2 fold change: 0.254

RRIRMRPPRLPRPRPRPIQTPRP
shrunken log2 fold change: -0.00151

RRIRDRPPRLPRPRPRPIIYPRP
shrunken log2 fold change: -0.313

RRIRPRPPRLPRPRPRPIHDPRP
shrunken log2 fold change: -0.0217

RRIRMRPPRLPRPRPRPPTLPRP
shrunken log2 fold change: 0.256

RRIRMRPPRLPRPRPRPTCIPRP
shrunken log2 fold change: -0.00872

RRIRDRPPRLPRPRPRPFFIPRP
shrunken log2 fold change: -0.191

RRIRTRPPRLPRPRPRPPRFPRP
shrunken log2 fold change: 0.219

RRIRQRPPRLPRPRPRPFWGPRP
shrunken log2 fold change: -0.0312

RRIRNRPPRLPRPRPRPTWGPRP
shrunken log2 fold change: -0.00179

RRIRQRPPRLPRPRPRPLRAPRP
shrunken log2 fold change: 0.825

RRIRSRPPRLPRPRPRPSQFPRP
shrunken log2 fold change: -0.345

RRIRIRPPRLPRPRPRPMMQPRP
shrunken log2 fold change: -0.0907

RRIRKRPPRLPRPRPRPFLWPRP
shrunken log2 fold change: -0.119

RRIRYRPPRLPRPRPRPQMPPRP
shrunken log2 fold change: -0.205

RRIRERPPRLPRPRPRPQLKPRP
shrunken log2 fold change: -0.358

RRIRNRPPRLPRPRPRPWTAPRP
shrunken log2 fold change: -0.0401

RRIRDRPPRLPRPRPRPTGNPRP
shrunken log2 fold change: 0.195

RRIRQRPPRLPRPRPRPYNRPRP
shrunken log2 fold change: -0.0882

RRIRCRPPRLPRPRPRPHWMPRP
shrunken log2 fold change: -0.371

RRIRHRPPRLPRPRPRPADEPRP
shrunken log2 fold change: 0.0084

RRIRTRPPRLPRPRPRPQKWPRP
shrunken log2 fold change: -0.147

RRIRLRPPRLPRPRPRPNDQPRP
shrunken log2 fold change: -0.19

RRIRFRPPRLPRPRPRPYTYPRP
shrunken log2 fold change: -0.141

RRIRNRPPRLPRPRPRPGEHPRP
shrunken log2 fold change: 0.00902

RRIRGRPPRLPRPRPRPAVYPRP
shrunken log2 fold change: 0.742

RRIRWRPPRLPRPRPRPQFWPRP
shrunken log2 fold change: 0.105

RRIRCRPPRLPRPRPRPAGDPRP
shrunken log2 fold change: 0.176

RRIRHRPPRLPRPRPRPQLNPRP
shrunken log2 fold change: -0.593

RRIRHRPPRLPRPRPRPRAYPRP
shrunken log2 fold change: -0.411

RRIRDRPPRLPRPRPRPSGLPRP
shrunken log2 fold change: 0.284

RRIRTRPPRLPRPRPRPYQFPRP
shrunken log2 fold change: 0.0636

RRIRHRPPRLPRPRPRPNIFPRP
shrunken log2 fold change: -0.0903

RRIRDRPPRLPRPRPRPCTLPRP
shrunken log2 fold change: -0.302

RRIRCRPPRLPRPRPRPTSYPRP
shrunken log2 fold change: -0.119

RRIRVRPPRLPRPRPRPCLVPRP
shrunken log2 fold change: -0.115

RRIRARPPRLPRPRPRPYDVPRP
shrunken log2 fold change: -0.0868

RRIRCRPPRLPRPRPRPRSAPRP
shrunken log2 fold change: 0.0532

RRIRIRPPRLPRPRPRPCQAPRP
shrunken log2 fold change: -0.025

RRIRWRPPRLPRPRPRPFYGPRP
shrunken log2 fold change: -0.0562

RRIRGRPPRLPRPRPRPGWSPRP
shrunken log2 fold change: 0.758

RRIRERPPRLPRPRPRPLSWPRP
shrunken log2 fold change: 0.04

RRIRMRPPRLPRPRPRPWKAPRP
shrunken log2 fold change: 0.0518

RRIRFRPPRLPRPRPRPHVAPRP
shrunken log2 fold change: 0.119

RRIRMRPPRLPRPRPRPGPNPRP
shrunken log2 fold change: 0.641

RRIRVRPPRLPRPRPRPDDYPRP
shrunken log2 fold change: -0.272

RRIRVRPPRLPRPRPRPTYDPRP
shrunken log2 fold change: -0.372

RRIRDRPPRLPRPRPRPIPFPRP
shrunken log2 fold change: -0.306

RRIRERPPRLPRPRPRPYGYPRP
shrunken log2 fold change: -0.0695

RRIRHRPPRLPRPRPRPQWRPRP
shrunken log2 fold change: 0.324

RRIRDRPPRLPRPRPRPGKTPRP
shrunken log2 fold change: -0.00088

RRIRHRPPRLPRPRPRPGEYPRP
shrunken log2 fold change: -0.219

RRIRNRPPRLPRPRPRPNDLPRP
shrunken log2 fold change: -0.0167

RRIRVRPPRLPRPRPRPMGSPRP
shrunken log2 fold change: -0.000992

RRIRFRPPRLPRPRPRPRRYPRP
shrunken log2 fold change: -0.0281

RRIRIRPPRLPRPRPRPGIQPRP
shrunken log2 fold change: -0.0834

RRIRFRPPRLPRPRPRPTKWPRP
shrunken log2 fold change: 0.333

RRIRDRPPRLPRPRPRPGCHPRP
shrunken log2 fold change: 0.15

RRIRARPPRLPRPRPRPQSNPRP
shrunken log2 fold change: -0.142

RRIRKRPPRLPRPRPRPMHGPRP
shrunken log2 fold change: 0.272

RRIRGRPPRLPRPRPRPYCTPRP
shrunken log2 fold change: -0.0267

RRIRRRPPRLPRPRPRPTPRPRP
shrunken log2 fold change: 2.37

RRIRIRPPRLPRPRPRPRIKPRP
shrunken log2 fold change: -0.466

RRIRQRPPRLPRPRPRPEIQPRP
shrunken log2 fold change: 0.0108

RRIRSRPPRLPRPRPRPRPQPRP
shrunken log2 fold change: 0.72

RRIRMRPPRLPRPRPRPVHAPRP
shrunken log2 fold change: 1.18

RRIRCRPPRLPRPRPRPKACPRP
shrunken log2 fold change: 0.0182

RRIRSRPPRLPRPRPRPSCTPRP
shrunken log2 fold change: -0.0382

RRIRHRPPRLPRPRPRPHASPRP
shrunken log2 fold change: 0.00288

RRIRDRPPRLPRPRPRPFPMPRP
shrunken log2 fold change: -0.0572

RRIRQRPPRLPRPRPRPMLPPRP
shrunken log2 fold change: -0.384

RRIRFRPPRLPRPRPRPWWCPRP
shrunken log2 fold change: -0.0371

RRIRRRPPRLPRPRPRPIKTPRP
shrunken log2 fold change: 0.00866

RRIRDRPPRLPRPRPRPFWDPRP
shrunken log2 fold change: 0.148

RRIRGRPPRLPRPRPRPSGIPRP
shrunken log2 fold change: 0.0684

RRIRQRPPRLPRPRPRPRCYPRP
shrunken log2 fold change: 0.0331

RRIRSRPPRLPRPRPRPEPHPRP
shrunken log2 fold change: 0.0658

RRIRNRPPRLPRPRPRPGHQPRP
shrunken log2 fold change: -0.0155

RRIRPRPPRLPRPRPRPLVEPRP
shrunken log2 fold change: 0.846

RRIRLRPPRLPRPRPRPCYNPRP
shrunken log2 fold change: -0.206

RRIRARPPRLPRPRPRPEFIPRP
shrunken log2 fold change: -0.189
